Results as given in article PMC3793637 (Nature, 2013).

Columns and labels:
[1] = target: insulin receptor site 1 (Homo sapiens) (UniProt P06213); details: cited from earlier work
[2] = target: insulin receptor site 2 (Homo sapiens) (UniProt P06213); details: cited from earlier work
crystal structure = target: the molecule itself; assay: crystal structure
SEC = target: the molecule itself; assay: SEC

Chain of insulin receptor site 2 (Homo sapiens) (P06213 763-956): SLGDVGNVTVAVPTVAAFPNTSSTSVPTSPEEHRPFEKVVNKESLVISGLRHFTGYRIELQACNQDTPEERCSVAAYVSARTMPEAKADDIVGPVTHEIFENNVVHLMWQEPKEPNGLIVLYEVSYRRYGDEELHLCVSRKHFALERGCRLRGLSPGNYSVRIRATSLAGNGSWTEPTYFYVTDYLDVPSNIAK
Chain of insulin receptor site 1 (Homo sapiens) (P06213 763-956): as above

insulin (from UniProt P01308)
Kd [1]: 6.4 nM | Kd [2]: 400 nM

B1: IR593.αCT (domain or fragment, human, UniProt P06213 28-620, looked up)
chain: HLYPGEVCPGMDIRNNLTRLHELENCSVIEGHLQILLMFKTRPEDFRDLSFPKLIMITDYLLLFRVYGLESLKDLFPNLTVIRGSRLFFNYALVIFEMVHLKELGLYNLMNITRGSVRIEKNNELCYLATIDWSRILDSVEDNYIVLNKDDNEECGDICPGTAKGKTNCPATVINGQFVERCWTHSHCQKVCPTICKSHGCTAEGLCCHSECLGNCSQPDDPTKCVACRNFYLDGRCVETCPPPYYHFQDWRCVNFSFCQDLHHKCKNSRRQGCHQYVIHNNKCIPECPSGYTMNSSNLLCTPCLGPCPKVCHLLEGEKTIDSVTSAQELRGCTVINGSLIINIRGGNNLAAELEANLGLIEEISGYLKIRRSYALVSLSFFRKLRLIRGETLEIGNYSFYALDNQNLRQLWDWSKHNLTITQGKLFFHYNPKLCLSEIHKMEEVSGTKGRQERNDIALKTNGDQASCENELLKFSYIRTSFDKILLRWEPYWPPDFRDLLGFMLFYKEAPYQNVTEFDGQDACGSNSWTVVDIDPPLRSNDPKSQNHPGWLMRGLKPWTQYAIFVKTLVTFSDERRTYGAKSDIIYVQTDATTFEDYLHNVVFVPRPS
stoichiometry N (crystal structure): 4 | stoichiometry N (SEC): 2
